The record followed here is patent publication US20030148264A1, “Phage displayed PDZ domain ligands” (GENENTECH, INC., priority 2001, published 2003).

For assay [1], the target named is T1, MAGI 3 PDZ2 (Homo sapiens, UniProt Q5TCQ9).
T1 sequence (Q5TCQ9 584-707 isoform Q5TCQ9-2): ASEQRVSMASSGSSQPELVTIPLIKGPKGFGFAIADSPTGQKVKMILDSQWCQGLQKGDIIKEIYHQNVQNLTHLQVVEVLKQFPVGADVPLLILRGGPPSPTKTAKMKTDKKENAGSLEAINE
Put plainly: Competition ELISA, peptide blocking PDZ domain binding to immobilized peptide. The arrangement: made in house; host or cells: E. coli. An excerpt: (§1) Many methods are known and can be used to identify the binding affinities of PDZ domain binding ligands (e.g. peptides, proteins, small mollecules, etc.); for example, binding affinities can be determined as IC50 values using competition ELISAs. The IC50 value is defined as the concentration of ligand which blocks 50% of PDZ domain binding to a ligand. For example, in solid phase assays, assay plates may be prepared by coating microwell plates (preferably treated to efficiently absorb protein) with neutravidin, avidin or streptavidin. Non-specific binding sites are then blocked through addition of a solution of bovine serum albumin (BSA) or other proteins (for example, nonfat milk) and then washed, preferably with a buffer containing a detergent, such as Tween-20. A biotinylated known PDZ-domain ligand (for example, the phage peptides or cognate protein as fusions with GST or other such molecule to facilitate purification and detection) is prepared and bound to the plate. Serial delutions of the ligand to be tested with a PDZ domain polypeptide arc prepared and contacted with the bound ligand. The plate coated with the immobilized ligandis washed before adding each binding reaction to the wells and briefly incubated. After further washing, the binding reactions are detected, often with an antibody recognizing the non-PDZ fusion partner and a labeled (such as horseradish peroxidase (HRP), alkaline phosphatase (AP), or a fluorescent tag such as fluorescein) secondary antibody recognizing the primary antibody. The plates are then developed with the appropriate substrate (depending on the label) and the signal quantified, such as using a spectrophotometric plate reader. The absorption signal may be fit to a binding curve using a least squares fit. Thus the ability of the various ligands to inhibit PDZ domain from binding a known PDZ-domain ligand can be measured.
Prokaryotic: The ERBIN PDZ domain (aa. 1217-1371 of SEQ ID NO:201) or MAGI-3 PDZ 2 (aa. 584-707 of SEQ ID NO:200) were cloned into the EcoR 1/Not 1 or BamH 1/Not 1 sites of pGEX 6P-1 and pGEX 4T-3 E. coli expression vectors (Pharmacia) respectively. Expression and affinity purification of E coli expressed GST-proteins was performed as recommended by the manufacturer (Pharmacia).
(§2) Peptides corresponding to the selected sequences were synthesized and assayed for binding (Table 2). […] The data also confirmed that the minimal tetrapeptide selectants from the PDZ2 sort bind PDZ2 with high affinity. […] It appears that this large difference in binding affinity is attributable to the residue at P(−1), which is a Trp in the selected peptide as opposed to a Lys in PTEN/MMAC (compare HTQITWV with HTQITKV (SEQ ID NO:220), Table 2; The IC50 values are the concentrations of peptide that blocked 50% of PDZ domain binding to immobilized peptide in an ELISA).

Assay [2] addresses T2, MAGI 3 PDZ3 (Homo sapiens, UniProt Q5TCQ9).
T2 construct: PDZ2 and PDZ3 were purified as glutathione S-transferase (GST) fusions from E coli; GST; made in house; host or cells: E. coli
The description is as above.
Text: as §1, §2

Assay [3] relates to Magi1 PDZ3. The assay can be described thus: IC50 (nM) | Magi1 PDZ3 | 0.625 nM | B01-87 | Bio-GGWFLDV (SEQ ID NO 686) | 15.62 nM. How it is done:
(§3) Table printed on a drawing sheet, Fig. 12
Head of the field: IC50 (nM) | Magi1 PDZ3 | 0.625 nM | B01-87 | Bio-GGWFLDV (SEQ ID NO 686) | 15.62 nM
(§4) The patent's description of the figure: FIG. 12. IC50 values indicating binding affinities of various peptides to PDZ domains
(§5) First copying reader's note: The first column (three lines per block: protein, accession, PDZ domain) is treated as one cell spanning its block; an empty ruled row above the IC50/SD head is left out; #### cells are spreadsheet overflow marks as printed; several heads and cells are cut off at the left by the print (ample, eptide No, EQ ID NO).
Where the first naming reader finds the target: head: IC50 (nM) | Magi1 PDZ3 | 0.625 nM | B01-87

Assay [4] concerns the target T3, Erbin PDZ (Homo sapiens, UniProt Q96RT1).
T3 construct: made in house; host or cells: E. coli
The assay can be described thus: IC50 (nM) | Erbin PDZ | 2 nM | PDZ501 | Bio-Ac-GGWETWV (SEQ ID NO 687) | 37 nM. As to the method: as §3, §4, §5
Where the first naming reader finds the target: head: IC50 (nM) | Erbin PDZ | 2 nM | PDZ501

In assay [5] the target is T4, Human Scribble (KIAA0147, NP_056171.1) PDZ2 (aa 788-913) (Homo sapiens, UniProt Q14160).
T4 construct: Human Scribble (KIAA0147, NP_056171.1) PDZ2 (aa 788-913); GST; made in house
T4 sequence (Q14160 788-913 isoform Q14160-2): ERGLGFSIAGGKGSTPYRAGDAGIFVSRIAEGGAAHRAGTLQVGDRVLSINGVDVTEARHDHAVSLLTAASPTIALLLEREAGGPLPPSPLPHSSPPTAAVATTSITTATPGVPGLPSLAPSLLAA
Put plainly: Carboxyl-terminal phage display binding selection. Conditions: number of phage-selected clones with this sequence, siblings counted as individuals. From the text: Phage display technology was further employed essentially as described above, with minor modifications, to select ligands of a variety of PDZ domains (including additional, independent rounds of selection for ERBIN PDZ and MAGI3 PDZ3). Briefly, peptide ligands were selected from pools of randomized peptides. […] The peptides were fused to the M13 phage major coat proteins such that the C-termini of the randomized peptides were free and available for binding. PDZ domains were utilized as their GST-fusions (referred to in this Example simply as “PDZ domains”). The particular amino acids comprising each PDZ domain target are indicated in the heading of Tables 11-29.
Peptide ligands were selected and identified for 17 (18 including ERBIN) PDZ domains. […] At the bottom of each table, the occurrence of each amino acid residue is expressed as a percentage of the total number of residues in the relevant position. Siblings (peptides with identical DNA that appear as more than one copy) were counted as individuals. The numbers for occurrence were corrected for codon usage. The relative codon usage is indicated after each amino acid in the header of the bottom section of each table. “n” refers to the number of sequences (siblings counted as individuals) on which the occurrence value is based; this number is also shown as normalized with respect to codon usage.

Assay [6] deals with T5, hZO1 PDZ1 (Homo sapiens, UniProt Q07157).
T5 construct: Human ZO1 (NM_003257) PDZ1; GST; made in house
The assay can be described thus: IC50 (nM) | hZO1 PDZ1 | 5 nM | B01-88 | Bio-GGWRWTTWL (SEQ ID NO 684) | 36 nM. How it is done: as §3
Head of the field: IC50 (nM) | hZO1 PDZ1 | 5 nM | B01-88 | Bio-GGWRWTTWL (SEQ ID NO 684) | 36 nM
as §4, §5
Where the first naming reader finds the target: head: IC50 (nM) | hZO1 PDZ1 | 5 nM | B01-88

In assay [7] the target is T6, ERBIN PDZ-GST fusion protein (aa. 1217-1371 of SEQ ID NO:201) (human, UniProt P08515 1-218 = GST). Put plainly: competition ELISA: ERBIN PDZ-GST binding to immobilized biotin-WETWV.
In assay [8] the target is T6, ERBIN PDZ-GST fusion protein (aa. …). The description is as above. This is another data set of the same source.
For assay [9] the target is unchanged. Described as above. The source holds these as a separate data set.
[10] abbreviates: MAGI 3 PDZ2, concentration of peptide that blocked 50% of PDZ domain binding to immobilized peptide in an ELISA, read-out: IC50 (μM) PDZ2.

Where two headings read alike, the source gives them in different places. Where a SMILES comes first, the peptide text is derived from it. Where no end group is shown, it is not given here.

T6 sequence (P08515 whole entry, the tested form may be a part): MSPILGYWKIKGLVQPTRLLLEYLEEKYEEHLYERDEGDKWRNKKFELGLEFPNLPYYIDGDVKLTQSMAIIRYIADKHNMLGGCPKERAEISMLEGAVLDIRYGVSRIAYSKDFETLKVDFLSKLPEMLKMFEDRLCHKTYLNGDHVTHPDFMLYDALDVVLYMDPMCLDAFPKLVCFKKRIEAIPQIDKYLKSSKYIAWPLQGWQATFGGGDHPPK
T5 sequence (Q07157 23-110): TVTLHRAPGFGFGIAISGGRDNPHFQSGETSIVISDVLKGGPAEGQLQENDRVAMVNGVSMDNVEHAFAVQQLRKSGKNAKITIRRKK
T3 sequence (Q96RT1 1258-1412): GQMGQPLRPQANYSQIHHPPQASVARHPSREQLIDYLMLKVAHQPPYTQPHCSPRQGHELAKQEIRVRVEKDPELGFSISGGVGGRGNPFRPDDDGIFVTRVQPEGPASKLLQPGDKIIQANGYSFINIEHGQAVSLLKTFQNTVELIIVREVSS
T2 sequence (Q5TCQ9 726-808 limits assumed): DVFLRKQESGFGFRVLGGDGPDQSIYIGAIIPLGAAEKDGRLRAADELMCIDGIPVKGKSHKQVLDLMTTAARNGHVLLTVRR

As a reminder, the IC50 is the midpoint of a concentration-inhibition curve. On to `CC[C@H](C)[C@H](N)C(=O)N[C@H](C(=O)N[C@@H](CCCCN)C(=O)N[C@H](C(=O)O)C(C)C)[C@@H](C)O` [ITKV, reference compound] (H-ITKV-OH; N-terminus and C-terminus assumed), for which the concentration for half-maximal inhibition (IC50) in assay [1] (MAGI 3 PDZ2 domain, read-out: IC50) came out at 200 µM. As to ASKVTWV [ASKVTWV], the IC50 in [2] was over 1000 µM; in assay [1] it was 0.8 µM.

As to “AWFDTDL [2 | 01-61, SEQ ID NO 641 AWFDTDL]”, the IC50 in assay [3] was 18200 nM; in [4], 25400 nM. “AWFETWV [phage-selected peptide, Scribble PDZ2]”: the occurence in assay [5] was found to be 2. Consider “Ac-FETDL [1 | 01-104, SEQ ID NO 640 N^AC-FETDL]”, for which the IC50 turned out to be 91500 nM in assay [3] and 101000 nM in assay [4]. For the molecule “Ac-RETWL [22 | 01-02, SEQ ID NO 661 N^AC-RETWL]”, the IC50 in assay [6] turned out to be 28600 nM; in assay [4], 39700 nM.

Turning to “Ac-WFLDA [42 | 01-22, SEQ ID NO 681 NAC-WFLDA]”, the IC50 was 21800 nM in [6] and 410 ± 72 nM in assay [3]. Regarding “Ac-WFLWI [34 | 01-12, SEQ ID NO 673 NAC-WFLWI]”, the concentration for half-maximal inhibition (IC50) was 34700 nM in assay [3] and over 400000 nM in [4].

For “Ac-WGWTTWL [12 | 01-30, EQ ID NO 651 N^AC-WGWTTWL]”, the IC50 in assay [6] turned out to be 47 ± 4 nM; in assay [4], 35500 nM.

With “Ac-WRHTTWL [11 | 01-29, EQ ID NO 650 N^AC-WRHTTWL]”, the IC50 in [6] was determined as 35 ± 5 nM; in assay [4] it was 52400 nM. With “Ac-WRWTTWV [13 | 01-31, EQ ID NO 652 N^AC-WRWTTWV]”, the figures for the IC50 in assay [3] and in [4] were 32600 nM and 789 ± 62 nM, respectively. Molecule “EQ ID NO 648 N^AC-WRWTTWL (Ac-WRWTTWL) [9 | 01-103]” showed an IC50 in assay [3] of 180 ± 59 nM.

Consider “EQ ID NO 649 N^AC-YRWTTWL (Ac-YRWTTWL) [10 | 01-28]”, for which 32600 nM corresponded to half-maximal inhibition in assay [3] (IC50). In turn, “ESVRGFDTWV [phage-selected peptide, Scribble PDZ2]” displayed an occurence in [5] of 1. With GCGCSWV, the 50% inhibitory concentration (IC50) in assay [1] (setting [10]) amounted to 2 µM. In turn, “HRVRETWV [phage-selected peptide, Scribble PDZ2]” came in with an occurence in assay [5] of 21. In the case of HTQITWV [HTQITWV], the IC50 in [1] (setting [10]) was 0.3 µM. In [5], “LTVRETWV [phage-selected peptide, Scribble PDZ2]” showed an occurence of 4. On the same count and under the same terms, under “RKSRTFETWV [phage-selected peptide, Scribble PDZ2]” stands 1; under “RSRYRFTDV [phage-selected peptide, Scribble PDZ2]”, 6. On to SEQ ID NO 671 NAC-WFLDI [32 | 01-14], for which the IC50 in assay [3] amounted to 408 ± 50 nM. “STGKFFDTWV [phage-selected peptide, Scribble PDZ2]” showed an occurence in assay [5] of 1. On to TRWWFDI-NH2 [TRWWFDI-NH2], for which the IC50 in [2] (MAGI 3 PDZ3, concentration of peptide that blocked 50% of PDZ domain binding to immobilized peptide in an ELISA, read-out: IC50 (μM) PDZ3) came out at 300 µM.

B1: Ac-WETAV (peptide)
peptide: Ac-WETAV
Regarding B1, the IC50 in [7] and in [8] was 34 µM throughout. The “fold less potent than Ac-WETWV” value in assay [7] and in assay [8] was 69.3 fold throughout.

B2: Ac-WEVWV (peptide)
peptide: Ac-WEVWV
On to B2, for which, in assay [9], the IC50 is 4.8 µM and the “fold less potent than Ac-WETWV” value was found to be 9.8 fold.

B3: Ac-WETYV (peptide)
peptide: Ac-WETYV
Consider B3, for which, in [7], the IC50 turned out to be 42.5 µM and the “fold less potent than Ac-WETWV” value came out at 86.7 fold.

B4: Ac-WDTWV (peptide)
peptide: Ac-WDTWV
Regarding B4, in [9], the IC50 is 1.7 µM and the “fold less potent than Ac-WETWV” value turned out to be 3.4 fold.

B5: Ac-WETFV (peptide)
peptide: Ac-WETFV
In the case of B5, in assay [7], the IC50 came to 14.5 µM and the “fold less potent than Ac-WETWV” value came to 295 fold.

B6: Ac-WATWV (peptide)
peptide: Ac-WATWV
Turning to B6, in assay [8], the IC50 stood at 14.8 µM and the “fold less potent than Ac-WETWV” value turned out to be 30.3 fold.

B7: Ac-AETWV (peptide)
peptide: Ac-AETWV
For the molecule B7, in assay [8], the IC50 stood at 4 µM and the “fold less potent than Ac-WETWV” value was found to be 8.2 fold.

B8: Ac-WEAWV (peptide)
peptide: Ac-WEAWV
Turning to B8, in [8], the IC50 was 12.4 µM and the “fold less potent than Ac-WETWV” value turned out to be 25.3 fold.

B9: Ac-WESWV (peptide)
peptide: Ac-WESWV
With B9, in assay [9], the IC50 was found to be 2.5 µM and the “fold less potent than Ac-WETWV” value is 5.2 fold.
